Columns and labels:
[1] = target: T1, CTLA4-ECD_Fc, soluble hCTLA4 comprising the extracellular domain of hCTLA4 fused to an Fc fragment (human, UniProt P16410 36-161); experiment: flow cytometry; inhibition of CTLA4-ECD_Fc binding to Raji cells (hB7-1/hB7-2)
T1 construct: extracellular domain; not shown: Fc fragment
Description: In a first assay, inhibition of hCTLA4 binding to hB7-1 and hB7-2 expressed on the surface of Raji cells was assessed. Raji cells, which are human cells, express high levels of hB7-1 and hB7-2. […] After 30 minutes, 1×10⁵ Raji cells were added to each well and incubated for another 30 minutes. […] IC₅₀'s were calculated using GraphPad Prism software (GraphPad, Inc., La Jolla, Calif., USA).

[2] = target: T2, human CTLA4 expressed on Jurkat T cells (human, UniProt P16410 36-223); experiment: cell-based or functional assay
[3] = target: T2, human CTLA4 expressed on Jurkat T cells; experiment: flow cytometry on Jurkat T cells expressing hCTLA4
From the text: After washing, the surface-bound anti-hCTLA4 antibodies were detected with a polyclonal anti-hlgG (Fc-specific) antibody labeled with fluorescein isothiocyanate (FITC)(anti-hlgG-FITC). Binding of anti-hCTLA4 antibodies were detected by flow cytometric analysis. The results were reported a geometric mean fluorescence intensity (MFI) using FlowJo software (FLOWJO, L.L.C., Ashland, Oreg., USA).

[4] = target: T3, human PD1 expressed on a cell surface (human, UniProt Q15116 25-288); experiment: cell-based or functional assay
[5] = target: T3, human PD1 expressed on a cell surface; experiment: flow cytometry on OKT3-activated human T cells, CD4- cells
Description: (§1) The following experiment tested whether the selected anti-hPD1 antibodies can bind to native PD1 expressed on the surface of activated T cells. Human PBMCs were pre-activated with OKT3 (an anti-CD3 antibody) at a concentration of 1 μg/ml. After three days, the PBMCs, which were mostly activated T cells at this time, were distributed into a 96 well microtiter plate using 0.1×10⁶ cells/well. […] The antibody bound to CD4⁺ T cells and CD4⁻ T cells (which were predominately CD8⁺ T cells) was detected using anti-hlgG-FITC and an anti-CD4 antibody labeled with allophycocyanin (anti-CD4-APC).
(§2) The samples were analyzed by flow cytometry (FACScalibur, BD), and binding was reported as an MFI. EC₅₀'s for binding were calculated using GraphPad Prism software.

[6] = target: T3, human PD1 expressed on a cell surface; experiment: flow cytometry on OKT3-activated human T cells, CD4+ cells
Description: as §1, §2

T3 sequence (Q15116 25-288): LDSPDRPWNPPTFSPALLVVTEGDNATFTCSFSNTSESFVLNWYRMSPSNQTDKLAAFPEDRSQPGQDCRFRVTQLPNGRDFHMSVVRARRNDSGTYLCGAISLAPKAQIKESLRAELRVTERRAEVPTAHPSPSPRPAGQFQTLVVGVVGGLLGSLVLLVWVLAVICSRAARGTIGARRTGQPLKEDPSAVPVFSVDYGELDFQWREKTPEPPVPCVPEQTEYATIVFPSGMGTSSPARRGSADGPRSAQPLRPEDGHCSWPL
T1 sequence (P16410 36-161): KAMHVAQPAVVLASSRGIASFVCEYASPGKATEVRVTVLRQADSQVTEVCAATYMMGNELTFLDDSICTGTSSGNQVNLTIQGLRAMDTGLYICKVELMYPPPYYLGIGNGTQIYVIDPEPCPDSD
T2 sequence (P16410 36-223): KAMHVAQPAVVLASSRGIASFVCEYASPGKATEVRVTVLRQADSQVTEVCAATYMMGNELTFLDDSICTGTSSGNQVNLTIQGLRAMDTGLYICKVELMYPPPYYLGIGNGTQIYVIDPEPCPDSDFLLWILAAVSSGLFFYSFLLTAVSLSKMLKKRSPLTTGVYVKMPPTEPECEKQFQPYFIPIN

IC50 [1] [nM]	IC50, luciferase (RLU), CTLA4 Dual-Cell Reporter Assay (Jurkat cells with hCTLA4 plus Raji cells) [2] [nM]	EC50 [3] [nM]	IC50, luciferase (RLU), PD1 dual cell reporter assay (Jurkat cells with hPD1 plus CHO-K1 cells with hPDL1) [4] [nM]	EC50 [5] [nM]	EC50 [6] [nM]	Binder
9.1	20.5	0.276	–	–	–	anti-hCTLA4 antibody 2F1 (antibody, human IgG1, V domains shown) VH: QVQLVESGGGVVEPGRSLRLSCAASGFTFSSYGMHWVRQAPGKGLEWVAVIWYHRSEKDYADSAKGRFTISRDNSKNTLYLQMNSLRAEDTAVYYCARAGLLGYFDYWGQGTLVTVSS VL: EIVLTQSPGTLSLSPGERATLSCRASQSINSYLAWYQQKPGQAPRPLIYGVSSRATGIPDRFSGSGSGTDFTLTISRLEPEDFAVYYCQQYGMYPFTFGPGTKVDIK
3.5	> 340	3.1	–	–	–	anti-hCTLA4 antibody 3G1 (antibody, human IgG1, V domains shown) VH: QVQLVESGGGVVEPGRSLRLSCTASGFTFSSYGMHWVRQAPGKGLEWVAVIWYKSSEKYYADSAKGRFTISRDNSKNTLYLQMNSLRAEDTAVYYCARGGLLGYFDYWGQGTLVTVSS VL: EIVLTQSPGTLSLSPGERATLSCRASQSINSYLAWYQQKPGQAPRPLIYGVSSRATGIPDRFSGSGSGTDFTLTISRLEPEDFAVYYCQQYGMYPFTFGPGTKVDIK
3.8	19	0.384	–	–	–	anti-hCTLA4 antibody 8B4 (antibody, human IgG1, V domains shown) VH: QVQLVESGGGVVEPGRSLRLSCAASGFTFSSYGMHWVRQAPGKGLEWVAVIWYQPSEKDYADSAKGRFTISRDNSKNTLYLQMNSLRAEDTAVYYCARAGFLGYFDYWGQGTLVTVSS VL: EIVLTQSPGTLSLSPGERATLSCRASQSVNSYLAWYQQKPGQAPRPLIYGVSSRATGIPDRFSGSGSGTDFTLTISRLEPEDFAVYYCQQYGMYPFTFGPGTKVDIK
6.3	28.2	0.697	–	–	–	anti-hCTLA4 antibody 1E1 (antibody, human IgG1, V domains shown) VH: QVQLVESGGGVVEPGRSLRLSCAASGFTFSSYGMHWVRQAPGKGLEWVAVIWYNPSEKDYADSAKGRFTISRDNSKNTLYLQMNSLRAEDTAVYYCARAGLLGYFDYWGQGTLVTVSS VL: EIVLTQSPGTLSLSPGERATLSCRASQSISSYLAWYQQKPGQAPRPLIYGVSSRATGIPDRFSGSGSGTDFTLTISRLEPEDFAVYYCQQYGMSPFTFGPGTKVDIK
8.2	73.8	0.189	–	–	–	anti-hCTLA4 antibody 4H1 (antibody, human IgG1, V domains shown) VH: QVQLVESGGGVVEPGRSLRLSCTASGFTFSSYGMHWVRQAPGKGLEWVAVIWYNPSKKDYADSAKGRFTISRDNSKNTLYLQMNSLRAEDTAVYYCARGGLFGYFDYWGQGTLVTVSS VL: EIVLTQSPGTLSLSPGERATLSCRASQSVSSYLAWYQQKPGQAPRPLIYGVSSRATGIPDRFSGSGSGTDFTLTISRLEPEDFAVYYCQQYGMYPFTFGPGTKVDIK
14.1	30	0.437	–	–	–	anti-hCTLA4 antibody 6E3 (antibody, human IgG1, V domains shown) VH: QVQLVESGGGVVEPGRSLRLSCAASGFTFSSYGMHWVRQAPGKGLEWVAVIWYKTSEKDYADSAKGRFTISRDNSKNTLYLQMNSLRAEDTAVYYCARAGLLGYFDYWGQGTLVTVSS VL: EIVLTQSPGTLSLSPGERATLSCRASQSVTSYLAWYQQKPGQAPRPLIYGVSSRATGIPDRFSGSGSGTDFTLTISRLEPEDFAVYYCQQYGMSPFTFGPGTKVDIK
11.5	> 340	2.93	–	–	–	anti-hCTLA4 antibody 5B2 (antibody, human IgG1, V domains shown) VH: QVQLVESGGGVVEPGRSLRLSCTASGFTFSSYGMHWVRQAPGKGLEWVAVIWYKSSEKDYADSAKGRFTISRDNSKNTLYLQMNSLRAEDTAVYYCARAGLLGYFDYWGQGTLVTVSS VL: EIVLTQSPGTLSLSPGERATLSCRASQSLSSYLAWYQQKPGQAPRLLIYGVSSRATGIPDRFSGSGSGTDFTLTISRLEPEDFAVYYCQQYGMYPFTFGPGTKVDIK
19.8	10.9	0.217	–	–	–	anti-hCTLA4 antibody 7A4 (antibody, human IgG1, V domains shown) VH: QVQLVESGGGVVEPGRSLRLSCTASGFTFSSYGMHWVRQAPGKGLEWVAVIWYQTSEKDYADSAKGRFTISRDNSKNTLYLQMNSLRAEDTAVYYCARAGLLGYFDYWGQGTLVTVSS VL: EIVLTQSPGTLSLSPGERATLSCRASQSVSSYLAWYQQKPGQAPRPLIYGVSSRATGIPDRFSGSGSGTDFTLTISRLEPEDFAVYYCQQYGMYPFTFGPGTKVDIK
3.5	13.9	0.15	–	–	–	anti-hCTLA4 antibody 12G4 (antibody, human IgG1, V domains shown) VH: QVQLVESGGGVVEPGRSLRLSCAASGFTFSSYGMHWVRQAPGKGLEWVAVIWYNTSKKDYADSAKGRFTISRDNSKNTLYLQMNSLRAEDTAVYYCARGGLLGYFDYWGQGTLVTVSS VL: EIVLTQSPGTLSLSPGERATLSCRASQSITSYLAWYQQKPGQAPRPLIYGVSSRATGIPDRFSGSGSGTDFTLTISRLEPEDFAVYYCQQYGRYPFTFGPGTKVDIK
15.7	25.3	0.473	–	–	–	anti-hCTLA4 antibody 9C4 (antibody, human IgG1, V domains shown) VH: QVQLVESGGGVVEPGRSLRLSCAASGFTFSSYGMHWVRQAPGKGLEWVAVIWYKSSEKDYADSAKGRFTISRDNSKNTLYLQMNSLRAEDTAVYYCARAGLLGYFDYWGQGTLVTVSS VL: EIVLTQSPGTLSLSPGERATLSCRASQSLNSYLAWYQQKPGQAPRPLIYGVSSRATGIPDRFSGSGSGTDFTLTISRLEPEDFAVYYCQQYGIYPFTFGPGTKVDIK
–	–	–	3.85	0.617	0.667	anti-hPD1 antibody #6 (antibody, human IgG4, V domains shown, also called Anti-hPD1 #6; Anti-PD1 #6) VH: QVQLVQSGAEVKKPGASVKVSCKASGYTFTNYWIHWVRQAPGQGLEWMGEIDPYDSYTNYNQKFKGRVTMTGDTSTSTVYMELSSLTSEDTAVYYCARPGYTYGGMDFWGQGTLVTVSS VL: DIQMTQSPSSLSASVGDRVTITCRSSQSLFNSGNQKNYLAWYQQKPGKPPKLLIYGASTRESGVPARFSGSGSGTDFTLTISSLQPEDVATYYCQNDHYYPYTFGGGTKVEIK
–	–	–	–	1.16	0.849	anti-hPD1 antibody #12 (antibody, human IgG4, V domains shown, also called Anti-hPD1 #12) VH: QVQLVQSGAEVKKPGASVKVSCKASGYTFTNYWMHWVRQAPGQGLEWMGEIDPFDSYTNYNQKFKGRVTMTIDTSTNTVYMELSSLRSEDTAVYYCARPGFTYGGMDFWGQGTLVTVSS VL: DIVMTQSPDSLAVSLGERATISCRSSQSLLISGNQKNYLAWYQQKPGQPPKLLIYGASTRDSGVPDRFSGSGSGTDFTLTISSLQAEDVAVYYCQNNHYYPYTFGGGTKVEIK
–	–	–	–	24.7	33.7	anti-hPD1 antibody #11 (antibody, human IgG4, V domains shown, also called Anti-hPD1 #11) VH: QVQLVQSGAEVKKPGASVKVSCKASGYTFTSYWIHWVRQAPGQGLEWMGEIDPSDSYTNYNQKFKGRVTMTGDTSTNTVYMELSSLTSEDTAVYYCARPGYTYGGMDFWGQGTLVTVSS VL: DIVMTQSPDSLAVSLGERATISCRSSQSLFISGNQKNYLAWYQQKPGQPPKLLIYGASTRDSGVPDRFSGSGSGTDFTLTISSLQAEDVAVYYCQNNHYYPYTFGGGTKVEIK
–	–	–	–	1.46	0.998	anti-hPD1 antibody #13 (antibody, human IgG4, V domains shown, also called Anti-hPD1 #13) VH: QVQLVQSGAEVKKPGASVKVSCKASGYTFTSYWIHWVRQAPGQGLEWMGEIDPYDSYTNYNQKFKGRVTMTVDKSTNTVYMELSSLTSEDTAVYYCARPGLTYGGMDFWGQGTLVTVSS VL: DIQMTQSPSSLSASVGDRVTITCKSSQSLLNSGNQKNYLAWYQQKPGKPPKLLIYGASTRDSGVPAKFSGSGSGTDFTLTISSLQPEDVATYYCQNDHYYPYTFGGGTKVEIK
–	–	–	–	0.904	0.647	anti-hPD1 antibody #8 (antibody, human IgG4, V domains shown, also called Anti-hPD1 #8) VH: QVQLVQSGAEVKKPGASVKVSCKASGYTFTNYWIHWVRQAPGQGLEWMGEIDPYDSYTNYNQKFKGRVTMTIDTSTSTVYMELSSLRSEDTAVYYCARPGNTYGGMDFWGQGTLVTVSS VL: DIVMTQSPDSLAVSLGERATINCKSSQSLFISGNQKNYLAWYQQKPGQPPKLLIYGASTRDSGVPDRFSGSGSGTDFTLTISSLQAEDVAVYYCQNNHYYPYTFGGGTKVEIK
–	–	–	–	0.627	0.72	anti-hPD1 antibody #15 (antibody, human IgG4, V domains shown, also called Anti-hPD1 #15) VH: QVQLVQSGAEVKKPGASVKVSCKASGYTFTNYWMHWVRQAPGQGLEWMGEIDPYDSYTNYNQKFKGRVTMTRDTSTNTVYMELSSLRSEDTAVYYCARPGLTYGGMDFWGQGTLVTVSS VL: DIQMTQSPSSLSASVGDRVTITCRSSQSLFNSGNQKNYLAWYQQKPGKPPKLLIYGASTRESGVPYRFSGSGSGTDFTLTISSLQPEDVATYYCQNDHYYPYTFGGGTKVEIK
